Holding throughout (assay): cell-based or functional assay
Experiment [1] deals with HIV-1 Env of isolate MGRM-D-018 (HIV-1).
The target in experiment [2] is HIV-1 JR-CSF Env D477A (HIV-1 (isolate JR-CSF)) (UniProt P20871).
The target in experiment [3] is HIV-1 JR-CSF Env N478A (HIV-1 (isolate JR-CSF)) (UniProt P20871).
Experiment [4] has as its target HIV-1 Env of isolate MGRM-D-029 (subtype D), on pseudovirus (HIV-1).
Experiment [5] addresses HIV-1 Env of isolate MGRM-C-014 (HIV-1).
Experiment [6] concerns the target HIV-1 Env of isolate MGRM-D-019 (HIV-1).
The target in experiment [7] is HIV-1 Env of isolate 94KE105 (subtype AC), on pseudovirus (HIV-1).
Experiment [8] deals with HIV-1 Env of isolate MGRM-Chronic-B-001 (HIV-1).
For experiment [9], the target named is HIV-1 JR-CSF Env N134A (HIV-1 (isolate JR-CSF)) (UniProt P20871).
Experiment [10] addresses HIV-1 Env of isolate MGRM-AE-007 (CRF01_AE), on pseudovirus (HIV-1).
In experiment [11] the target is HIV-1 Env of isolate MGRM-F1-008 (subtype F), on pseudovirus (HIV-1).
For experiment [12], the target named is HIV-1 JR-CSF Env G471A (HIV-1 (isolate JR-CSF)) (UniProt P20871).
The target of experiment [13] is HIV-1 Env of isolate MGRM-F1-013 (subtype F), on pseudovirus (HIV-1).
In experiment [14] the target is HIV-1 Env of isolate MGRM-F1-018 (subtype F), on pseudovirus (HIV-1).
Experiment [15] deals with HIV-1 Env of isolate 92WR009 (HIV-1).
The target in experiment [16] is HIV-1 Env of isolate MG RM-A-006 (HIV-1).
Experiment [17] concerns the target HIV-1 JR-CSF Env V182A (HIV-1 (isolate JR-CSF)) (UniProt P20871).
Experiment [18] concerns the target HIV-1 Env of isolate TRJ04551.58 (HIV-1).
The target of experiment [19] is HIV-1 Env of isolate 92UG005 (HIV-1).
For experiment [20], the target named is HIV-1 Env of isolate MGRM-F1-014 (subtype F), on pseudovirus (HIV-1).

Some results are limits rather than exact numbers.

As to 5343_B08 (PGT-135) (antibody), the IC50 is 0.039 µg/mL in [1]; greater than 50 µg/mL in [5]; greater than 50 µg/mL in experiment [6]; greater than 50 µg/mL in experiment [8]; greater than 50 µg/mL in experiment [18]; greater than 50 µg/mL in experiment [19]. Besides, the Fold IC50 increase relative to wild-type came to 1.5 fold in experiment [2]; 0.7 fold in experiment [3]; 0.2 fold in experiment [9]; 3 fold in experiment [12]; 1.5 fold in [17]. Further, the IC50, pseudovirus neutralization in [4] was 30.8 µg/mL; in experiment [11], greater than 50 µg/mL; in experiment [13] it was 21.1 µg/mL; in experiment [14], greater than 50 µg/mL; in experiment [20], greater than 50 µg/mL. Moreover, the IC50, single-round pseudovirus neutralization is 0.063 µg/mL in experiment [7] and greater than 50 µg/mL in experiment [10]. The neutralization IC50 in experiment [15] and in experiment [16] was greater than 50 µg/mL in each case.

The IC50 is the concentration needed to halve the response being measured. A lower IC50 goes with higher potency.

Values taken from patent publication US20200024330A1.
